{"source": "paper PMC12338573", "about": "(bioRxiv, 2025)", "proteins": {"B1": {"name": "hFcµ-tFcµ-chi3 with Cys414 mutated (domain or fragment)", "chain": "TAIRVFAIPPSFASIFLTKSTKLTCLVTDLTTYDSVTISWTRQNGEAVKTHTNISESHPNATFSAVGEASIAEDDWNSGERFTCTVTHTDLPSPLKQTISRPKGVALHRPDVYLLPPAREQLNLRESATITCLVTGFSPADVFVQWMQRGQPLSPEKYVTSAPMPEPQAPGRYFAHSILTVSEEEWNTGETYTCVVAHEALPNRVTERTVDRTSNQPNLVNLSLNVPQRCMAQ"}}, "molecular_target": "the molecule itself", "assay": "SEC-MALS"}
{"protein": "B1", "values": [{"measurement": "pentamer:monomer ratio", "value": 14, "unit": "%"}]}
